The text below walks through data of patent US20220363748A1 (AstraZeneca / MedImmune, published 2022).

Assay [1] deals with T1, EGFR-Fc (R&D Systems #344-ER-050) (UniProt P00533 25-645).
T1 construct: Bought reagent; not shown: Fc part of the bought fusion; detected with anti-human IgG
The experiment in a line: ELISA: biotinylated antigen on streptavidin plate, EGFR-Fc with or without untagged RAGE, detection with anti-human IgG HRP. The procedure:
(§1) Plates were washed 3×with 200 μl PBS-T (PBS +1% (v/v) Tween-20) and blocked with 300 μl/well blocking buffer (PBS with 1% BSA (Sigma, A9576)) for 1 hour. […] Plates were washed with 200 μl PBS-T three times. […] Plates were washed 3×with PBS-T and developed with TMB, 100 μl/well (Sigma, T0440). The reaction was quenched with 50 μl/well 0.1 M H2504. Absorbance was read at 450nm on the Cytation Gen5 or similar equipment.

In assay [2] the target is T2, RAGE-Fc (R&D Systems #1145-RG) (UniProt Q15109 24-344).
T2 construct: Bought reagent; not shown: Fc part of the bought fusion; detected with anti-human IgG
The assay can be described thus: ELISA: biotinylated antigen on streptavidin plate, RAGE-Fc, detection with anti-human IgG HRP. The procedure: as §1
Background: ELISA stands for enzyme-linked immunosorbent assay.

The target of assay [3] is T2, RAGE-Fc (R&D Systems #1145-RG). The experiment in a line: ELISA: biotinylated oxIL-33 on streptavidin plate, RAGE-Fc 10 µg/mL, anti-human IgG HRP. The procedure: as §1
For assay [4], the target named is T3, ST2S-Fc-His6 fusion protein (human, UniProt Q01638 19-328).
T3 construct: CD33 signal peptide used for secretion, not part of the protein; also called soluble human ST2S extracellular domain fused to human IgG1 Fc-His6; human ST2 ECD
T3 sequence: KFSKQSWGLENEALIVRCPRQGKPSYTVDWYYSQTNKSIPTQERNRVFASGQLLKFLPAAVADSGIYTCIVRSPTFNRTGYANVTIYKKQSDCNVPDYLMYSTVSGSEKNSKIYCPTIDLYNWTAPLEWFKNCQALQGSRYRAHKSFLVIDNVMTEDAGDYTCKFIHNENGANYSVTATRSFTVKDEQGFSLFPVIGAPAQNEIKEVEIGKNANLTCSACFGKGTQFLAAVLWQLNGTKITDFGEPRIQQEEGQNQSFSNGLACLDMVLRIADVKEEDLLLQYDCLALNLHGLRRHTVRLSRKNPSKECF
The experiment in a line: depletion of remaining reduced IL-33 from the oxIL-33 preparation, in solution, then size exclusion.

For assay [5], the target named is T1, EGFR-Fc (R&D Systems #344-ER-050). The assay can be described thus: ELISA: biotinylated antigen on streptavidin plate, EGFR-Fc, detection with anti-human IgG HRP. The procedure: as §1
Assay [6] concerns the target T2, RAGE-Fc (R&D Systems #1145-RG). The assay can be described thus: ELISA: biotinylated antigen on streptavidin plate, RAGE-Fc at 10 µg/mL, detection with anti-human IgG HRP. How it is done: as §1

T2 sequence (Q15109 24-344 limits assumed): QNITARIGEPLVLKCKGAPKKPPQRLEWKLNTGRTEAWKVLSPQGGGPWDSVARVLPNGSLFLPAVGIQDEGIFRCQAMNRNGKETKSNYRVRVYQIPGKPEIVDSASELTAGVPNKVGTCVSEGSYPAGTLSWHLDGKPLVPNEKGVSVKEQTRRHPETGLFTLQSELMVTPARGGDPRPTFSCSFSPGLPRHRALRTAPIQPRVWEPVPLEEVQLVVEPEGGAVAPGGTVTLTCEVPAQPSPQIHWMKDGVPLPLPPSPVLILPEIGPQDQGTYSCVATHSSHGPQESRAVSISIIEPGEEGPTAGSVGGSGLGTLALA

B1: IL-33[C->S] (ligand)
cytokine: MHHHHHHHHHHAAGLNDIFEAQKIEWHEAAIEGRSITGISPITEYLASLSTYNDQSITFALEDESYEIYVEDLKKDEKKDKVLLSYYESQHPSNESGDGVDGKMLMVTLSPTKDFWLHANNKEHSVELHKSEKPLPDQAFFVLHNMHSNSVSFESKTDPGVFIGVKDNHLALIKVDSSENLSTENILFKLSET
modifications: biotinylated at the Avitag with BirA
notes: also called IL33-16
Consider B1, for which the binding result in assay [1] and in assay [2] was “no binding” in each case.

B2: Avitag_IL-33-01 (oxidised IL-33), biotinylated (ligand)
chain: MHHHHHHHHHHAAGLNDIFEAQKIEWHEAAIEGRSITGISPITEYLASLSTYNDQSITFALEDESYEIYVEDLKKDEKKDKVLLSYYESQHPSNESGDGVDGKMLMVTLSPTKDFWLHANNKEHSVELHKCEKPLPDQAFFVLHNMHSNCVSFECKTDPGVFIGVKDNHLALIKVDSSENLCTENILFKLSET
modifications: biotinylated on the Avitag with BirA; oxidised (disulphide bonded) form of IL-33
notes: also called oxIL-33; oxidised IL-33-01
Turning to B2, the binding result in assay [3] was “binds”.

B3: Biotinylated EGF (Thermo) (ligand, UniProt P01133 971-1023, looked up)
chain: NSDSECPLSHDGYCLHDGVCMYIEALDKYACNCVVGYIGERCQYRDLKWWELR
modifications: biotinylated (bought so)
As to B3, the binding result in assay [2] was “no binding”.

B4: Untagged IL33-01 (reduced IL-33) (ligand)
chain: SITGISPITEYLASLSTYNDQSITFALEDESYEIYVEDLKKDEKKDKVLLSYYESQHPSNESGDGVDGKMLMVTLSPTKDFWLHANNKEHSVELHKCEKPLPDQAFFVLHNMHSNCVSFECKTDPGVFIGVKDNHLALIKVDSSENLCTENILFKLSET
notes: also called redIL-33; wild type IL-33
Consider B4, for which the binding result in assay [4] is on record as “binds”.

B5: HMGB1 (R&D systems 1690-HMB-050), biotinylated (ligand, UniProt P09429 1-215, looked up)
chain: MGKGDPKKPRGKMSSYAFFVQTCREEHKKKHPDASVNFSEFSKKCSERWKTMSAKEKGKFEDMAKADKARYEREMKTYIPPKGETKKKFKDPNAPKRPPSAFFLFCSEYRPKIKGEHPGLSIGDVAKKLGEMWNNTAADDKQPYEKKAAKLKEKYEKDIAAYRAKGKPDAAKKGVVKAEKSKKKKEEEEDEEDEEDEEEEEDEEDEDEEEDDDDE
modifications: biotinylated via free amines (EZ link Sulfo-NHS-LC-Biotin)
With B5, the binding result is given as “no binding” in assay [5] and “binds” in assay [6].
